# Results taken from patent US20210261648A1 (published 2021).
# Changes are numbered by the printed parent chain.
# T1: FcγRIIb extracellular domain with C-terminal His tag (human, UniProt P31994 43-217)
# T1 construct: extracellular domain; also called FcgRIIb
# T1 sequence (looked up): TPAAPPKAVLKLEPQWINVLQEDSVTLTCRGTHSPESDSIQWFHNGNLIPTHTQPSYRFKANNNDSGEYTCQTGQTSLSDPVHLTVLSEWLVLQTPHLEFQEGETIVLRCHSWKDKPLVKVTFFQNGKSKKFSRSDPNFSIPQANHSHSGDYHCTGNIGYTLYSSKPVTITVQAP
# T2: FcγRIIa type H extracellular domain with C-terminal His tag (human, UniProt P12318 34-217)
# T2 construct: extracellular domain; also called FcgRIIaH; FcγRIIa H
# T2 sequence (looked up): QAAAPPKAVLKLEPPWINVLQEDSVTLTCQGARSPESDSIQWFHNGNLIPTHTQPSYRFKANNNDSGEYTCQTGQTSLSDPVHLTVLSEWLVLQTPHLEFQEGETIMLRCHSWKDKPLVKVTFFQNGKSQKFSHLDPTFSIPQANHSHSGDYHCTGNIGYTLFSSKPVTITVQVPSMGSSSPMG
# B1: IL6R-BP177/IL6R-L (antibody, human IgG1, kappa)
# heavy: QVQLQESGPGLVKPSETLSLTCAVSGHSISHDHAWSWVRQPPGEGLEWIGFISYSGITNYNPSLQGRVTISRDNSKNTLYLQMNSLRAEDTAVYYCARSLARTTAMDYWGEGTLVTVSSASTKGPSVFPLAPSSKSTSGGTAALGCLVKDYFPEPVTVSWNSGALTSGVHTFPAVLQSSGLYSLSSVVTVPSSSLGTQTYICNVNHKPSNTKVDKKVEPKSCDKTHTCPPCPAPDYLGDDSVFLFPPKPKDTLMISRTPEVTCVVVDVSHEDGEVKFNWYVDGVEVHNAKTKPREEQYNSTYRVVSVLTVLHQDWLNGKEYKCKVSNDALPKPIEKTISKAKGQPREPQVYTLPPSRDELTKNQVSLTCLVKGFYPSDIAVEWESNGQPENNYKTTPPVLDSDGSFFLYSKLTVDKSRWQQGNVFSCSVMHEALHNHYTQESLSLSP
# light: not shown
# B2: IL6R-BP087/IL6R-L (antibody, human IgG1, kappa)
# heavy: B1 heavy with D235E, D239G, G273P, D328K
# light: not shown
# B3: IL6R-BP198/IL6R-L (antibody, human IgG1, kappa)
# heavy: B1 heavy with D239G, H270D, D328A
# light: not shown
# B4: IL6R-BP147/IL6R-L (antibody, human IgG1, kappa)
# heavy: B1 heavy with D235E, G273P, D328A
# light: not shown
# B5: IL6R-BP088/IL6R-L (antibody, human IgG1, kappa)
# heavy: B1 heavy with D235E, Y236L, G273P, D328A
# light: not shown
# B6: IL6R-BP195/IL6R-L (antibody, human IgG1, kappa)
# heavy: B1 heavy with H270D, Y298D, D328A
# light: not shown
# B7: IL6R-BP189/IL6R-L (antibody, human IgG1, kappa)
# heavy: B1 heavy with D235E, Y236L, H270D, D328A
# light: not shown
# B8: IL6R-BP149/IL6R-L (antibody, human IgG1, kappa)
# heavy: B1 heavy with G273P, Y298D, D328A
# light: not shown
# B9: IL6R-BP180/IL6R-L (antibody, human IgG1, kappa)
# heavy: B1 heavy with D235E, Y236L, D328K
# light: not shown
# B10: IL6R-BP152/IL6R-L (antibody, human IgG1, kappa)
# heavy: B1 heavy with G273P, Y298D, D328A, K332R
# light: not shown
# B11: IL6R-BP194/IL6R-L (antibody, human IgG1, kappa)
# heavy: B1 heavy with H270D, D328A
# light: not shown
# B12: IL6R-BP187/IL6R-L (antibody, human IgG1, kappa)
# heavy: B1 heavy with D235E, D239G, D328A
# light: not shown
# B13: IL6R-BP145/IL6R-L (antibody, human IgG1, kappa)
# heavy: B1 heavy with D235E, G273P, D328K, K332A
# light: not shown
# B14: IL6R-BP150/IL6R-L (antibody, human IgG1, kappa)
# heavy: B1 heavy with D235E, G273P, D328A, K332R
# light: not shown
# B15: IL6R-BP148/IL6R-L (antibody, human IgG1, kappa)
# heavy: B1 heavy with G273P, D328A
# light: not shown
# B16: IL6R-BP146/IL6R-L (antibody, human IgG1, kappa)
# heavy: B1 heavy with D235E, G273P, D328A, K332A
# light: not shown
# B17: IL6R-BP178/IL6R-L (antibody, human IgG1, kappa)
# heavy: B1 heavy with Y236L, D328K
# light: not shown
# Biological target: T3, FcγRIa extracellular domain with C-terminal His tag (human, UniProt P12314 16-292)
# T3 construct: also called FcgRIa
# Assay: SPR, captured antibody, FcgR analyte
# Procedure: (§1) Relative binding activities were calculated for the results of analyzing interactions with the respective FcγRs according to the following method.
# T3 sequence (P12314 16-292): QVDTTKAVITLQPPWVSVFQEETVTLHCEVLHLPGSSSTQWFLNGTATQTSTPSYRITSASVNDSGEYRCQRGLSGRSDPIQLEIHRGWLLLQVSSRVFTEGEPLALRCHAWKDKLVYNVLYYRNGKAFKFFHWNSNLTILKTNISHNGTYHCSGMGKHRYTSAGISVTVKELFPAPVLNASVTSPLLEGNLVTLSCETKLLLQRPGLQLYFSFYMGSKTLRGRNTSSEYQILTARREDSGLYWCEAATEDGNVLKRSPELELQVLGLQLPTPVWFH
row,relative binding activity,Binder
1,57 relative (IL6R-BF648/IL6R-L = 100),B1
2,33 relative (IL6R-BF648/IL6R-L = 100),B2
3,104 relative (IL6R-BF648/IL6R-L = 100),B3
4,24 relative (IL6R-BF648/IL6R-L = 100),B4
5,25 relative (IL6R-BF648/IL6R-L = 100),B5
6,68 relative (IL6R-BF648/IL6R-L = 100),B6
7,56 relative (IL6R-BF648/IL6R-L = 100),B7
8,29 relative (IL6R-BF648/IL6R-L = 100),B8
9,29 relative (IL6R-BF648/IL6R-L = 100),B9
10,34 relative (IL6R-BF648/IL6R-L = 100),B10
11,69 relative (IL6R-BF648/IL6R-L = 100),B11
12,68 relative (IL6R-BF648/IL6R-L = 100),B12
13,41 relative (IL6R-BF648/IL6R-L = 100),B13
14,30 relative (IL6R-BF648/IL6R-L = 100),B14
15,33 relative (IL6R-BF648/IL6R-L = 100),B15

# Biological target: T1, FcγRIIb extracellular domain with …
# Assay: SPR, captured antibody, FcgR analyte
# Procedure: as §1
row,relative binding activity,Binder
1,177 relative (IL6R-BF648/IL6R-L = 100),B1
2,137 relative (IL6R-BF648/IL6R-L = 100),B2
3,164 relative (IL6R-BF648/IL6R-L = 100),B3
4,177 relative (IL6R-BF648/IL6R-L = 100),B4
5,161 relative (IL6R-BF648/IL6R-L = 100),B5
6,177 relative (IL6R-BF648/IL6R-L = 100),B7
7,173 relative (IL6R-BF648/IL6R-L = 100),B8
8,179 relative (IL6R-BF648/IL6R-L = 100),B9
9,156 relative (IL6R-BF648/IL6R-L = 100),B16
10,178 relative (IL6R-BF648/IL6R-L = 100),B10
11,178 relative (IL6R-BF648/IL6R-L = 100),B11
12,157 relative (IL6R-BF648/IL6R-L = 100),B12
13,152 relative (IL6R-BF648/IL6R-L = 100),B13
14,183 relative (IL6R-BF648/IL6R-L = 100),B14
15,179 relative (IL6R-BF648/IL6R-L = 100),B17
16,176 relative (IL6R-BF648/IL6R-L = 100),B15

# Biological target: T2, FcγRIIa type H extracellular domain …
# Assay: SPR, captured antibody, FcgR analyte
# Procedure: as §1
row,relative binding activity,Binder
1,409 relative (IL6R-BF648/IL6R-L = 100),B1
2,179 relative (IL6R-BF648/IL6R-L = 100),B2
3,188 relative (IL6R-BF648/IL6R-L = 100),B3
4,582 relative (IL6R-BF648/IL6R-L = 100),B4
5,166 relative (IL6R-BF648/IL6R-L = 100),B5
6,344 relative (IL6R-BF648/IL6R-L = 100),B6
7,183 relative (IL6R-BF648/IL6R-L = 100),B7
8,401 relative (IL6R-BF648/IL6R-L = 100),B8
9,203 relative (IL6R-BF648/IL6R-L = 100),B9
10,203 relative (IL6R-BF648/IL6R-L = 100),B16
11,548 relative (IL6R-BF648/IL6R-L = 100),B10
12,395 relative (IL6R-BF648/IL6R-L = 100),B11
13,205 relative (IL6R-BF648/IL6R-L = 100),B12
14,224 relative (IL6R-BF648/IL6R-L = 100),B13
15,770 relative (IL6R-BF648/IL6R-L = 100),B14
16,259 relative (IL6R-BF648/IL6R-L = 100),B17
17,462 relative (IL6R-BF648/IL6R-L = 100),B15
